Paper doi:10.1101/2021.08.08.455546

Target: Human GRLBD-F602S (520-778), glucocorticoid receptor ligand binding domain (human) (UniProt P04150)
UniProt P04150, sequence (P04150 520-777 F602S): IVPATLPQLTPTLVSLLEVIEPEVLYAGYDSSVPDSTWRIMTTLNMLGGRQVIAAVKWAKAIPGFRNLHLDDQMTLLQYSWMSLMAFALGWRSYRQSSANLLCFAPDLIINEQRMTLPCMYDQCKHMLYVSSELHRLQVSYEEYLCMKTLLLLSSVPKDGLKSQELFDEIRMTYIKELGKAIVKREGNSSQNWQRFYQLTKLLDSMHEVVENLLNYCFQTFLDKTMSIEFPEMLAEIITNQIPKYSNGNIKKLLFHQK

Human Hsp90β (from UniProt P08238 1-724) (natural protein)
relaxation energy of the GRLBD chain with hHsp90 in absence of ATP: 42 KBT
